Experimental data: publication PMC3965382

Biological target: T1, purified Gαs, P63092
T1 chain: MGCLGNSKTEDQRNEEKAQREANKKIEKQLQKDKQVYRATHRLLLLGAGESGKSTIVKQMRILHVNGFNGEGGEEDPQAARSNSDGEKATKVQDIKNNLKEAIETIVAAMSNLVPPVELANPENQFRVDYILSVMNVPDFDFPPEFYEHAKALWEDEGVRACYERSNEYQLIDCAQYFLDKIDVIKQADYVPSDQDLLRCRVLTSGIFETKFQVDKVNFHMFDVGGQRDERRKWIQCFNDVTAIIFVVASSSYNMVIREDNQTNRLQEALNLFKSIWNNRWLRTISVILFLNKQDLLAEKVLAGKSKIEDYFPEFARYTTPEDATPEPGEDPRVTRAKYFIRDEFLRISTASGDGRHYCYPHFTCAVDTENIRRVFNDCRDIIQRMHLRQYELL
Assay: SPR
Conditions: chain shown with the change, read off a plot

response (500 nM coronin 1 injected over immobilized Gαs, parent: est. 120): 25 RU
response (1000 nM coronin 1 injected over immobilized Gαs, parent: est. 400): 76 RU
B1: wild-type coronin 1, HA-tagged, O89053 K20A; R69A; K355A; E102A (protein)
chain: MSRQVVRSSKFRHVFGQPAAADQCYEDVRVSQTTWDSGFCAVNPKFMALICEASGGGAFLVLPLGKTGAVDKNVPLVCGHTAPVLDIAWCPHNDNVIASGSADCTVMVWEIPDGGLVLPLREPVITLEGHTKRVGIVAWHPTAQNVLLSAGCDNVILVWDVGTGAAVLTLGPDVHPDTIYSVDWSRDGALICTSCRDKRVRVIEPRKGTVVAEKDRPHEGTRPVHAVFVSEGKILTTGFSRMSERQVALWDTKHLEEPLSLQELDTSSGVLLPFFDPDTNIVYLCGKGDSSIRYFEITSEAPFLHYLSMFSSKESQRGMGYMPKRGLEVNKCEIARFYKLHERKCEPIAMTVPRASDLFQEDLYPPTAGPDPALTAEEWLGGRDAGPLLISLKDGYVPPKSRELRVNRGLDSARRRATPEPSGTPSSDTVSRLEEDVRNLNAIVQKLQERLDRLEETVQAK
